Laboratory results published in US20150023943, “REF Nuclease for Site-Specific REF-Mediated DNA Cleavage” (Wisconsin Alumni Research Foundation, published 2015).

T1: φW39 ΔN47 Ref (Bacteriophage phi W39)
T1 chain: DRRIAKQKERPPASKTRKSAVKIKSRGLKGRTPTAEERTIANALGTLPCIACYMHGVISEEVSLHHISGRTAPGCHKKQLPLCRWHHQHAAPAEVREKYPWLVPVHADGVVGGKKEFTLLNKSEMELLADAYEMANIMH

T2: φW39 ΔN74 Ref (Bacteriophage phi W39)
T2 chain: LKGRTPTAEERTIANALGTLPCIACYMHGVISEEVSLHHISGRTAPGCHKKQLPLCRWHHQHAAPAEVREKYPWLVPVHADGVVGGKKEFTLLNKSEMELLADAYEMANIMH

T3: P1 Ref (wild type) (Bacteriophage P1, UniProt P35926 SEQ:1-186)
T3 sequence: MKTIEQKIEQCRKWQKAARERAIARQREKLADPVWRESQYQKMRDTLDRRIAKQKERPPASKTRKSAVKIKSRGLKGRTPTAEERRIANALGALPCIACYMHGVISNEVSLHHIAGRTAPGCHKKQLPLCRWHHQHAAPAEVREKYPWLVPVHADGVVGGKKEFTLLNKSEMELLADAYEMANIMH

T4: φW39 ΔN21 Ref (Bacteriophage phi W39)
T4 chain: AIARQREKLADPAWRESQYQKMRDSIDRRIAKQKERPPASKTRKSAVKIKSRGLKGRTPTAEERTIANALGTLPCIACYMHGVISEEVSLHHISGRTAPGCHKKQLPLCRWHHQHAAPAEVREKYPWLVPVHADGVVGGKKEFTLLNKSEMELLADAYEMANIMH

T5: P1 ΔN76 Ref (Bacteriophage P1, UniProt P35926 SEQ:77-186)
T5 chain: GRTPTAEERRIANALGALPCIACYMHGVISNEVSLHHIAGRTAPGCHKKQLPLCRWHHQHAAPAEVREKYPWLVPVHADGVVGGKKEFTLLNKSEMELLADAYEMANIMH


Key:
φW39 ΔN47 Ref [1] = molecular target: T1, φW39 ΔN47 Ref; experiment: FP; apparent Kd; 113±7; 15 mM Mg acetate, pH 8.5, 25 C; settings: tags: expressed from pET21A with NdeI start Met; label: 5'-6FAM
Procedure: (§1) Fluorescence polarization DNA binding assay—Ref (or a variant) at 0.5-10,000 nM was incubated with 2 nM AJM25 71mer ssDNA or AJM25 annealed with AJG52 71mer to make dsDNA substrate in 25 mM Tris-acetate (pH 8.5), 3 mM potassium glutamate, 15 mM magnesium acetate, and 5% w/v glycerol at room temperature for 15 minutes. Fluorescence anisotropy (FA) was measured at 25° C., using a Tecan Infinite M1000 instrument with 470-nm excitation and 535-nm emission wavelengths for at least three replicates; the average FA values were plotted with one standard deviation of the mean shown as error. Prism software was used to convert FA values to the fraction of DNA bound and apparent dissociation constants were the Ref concentration (or variant) needed for 50% binding saturation.
(§2) Fluorescence polarization assays with labeled DNA substrates (ssDNA and dsDNA) were carried out to determine dissociation constants of each of the N-terminal domain truncations. […] For the P1 ΔN76 Ref protein, this is consistent with EMSA data from the earlier study (Gruenig et al 2011, supra). […] This indicates the presence of a critical sequence domain between residues 47-74.

φW39 ΔN74 Ref [2] = molecular target: T2, φW39 ΔN74 Ref; experiment: FP; no binding detected up to 10,000 nM; settings: tags: expressed from pET21A with NdeI start Met; label: 5'-6FAM
Procedure: as §1, §2

P1 Ref (wild type) [3] = molecular target: T3, P1 Ref (wild type); experiment: FP; apparent Kd; 14±1; 25 mM Tris-acetate pH 8.5, 15 mM Mg acetate, 3 mM K glutamate, 25 C; settings: label: 5'-6FAM
Procedure: as §1, §2

φW39 ΔN21 Ref [4] = molecular target: T4, φW39 ΔN21 Ref; experiment: FP; apparent Kd; 119±9; 15 mM Mg acetate, pH 8.5, 25 C; settings: tags: expressed from pET21A with NdeI start Met; label: 5'-6FAM
Procedure: as §1, §2

P1 ΔN76 Ref [5] = molecular target: T5, P1 ΔN76 Ref; experiment: FP; no binding detected up to 10,000 nM; consistent with earlier EMSA; settings: label: 5'-6FAM
Procedure: as §1, §2

φW39 ΔN47 Ref [6] = molecular target: T1, φW39 ΔN47 Ref; experiment: FP; apparent Kd; 143±12; 15 mM Mg acetate, pH 8.5, 25 C; settings: tags: expressed from pET21A with NdeI start Met; label: 5'-6FAM on AJM25
Procedure: as §1
(§3) The truncations were also assayed with 71mer dsDNA substrate. The dsDNA substrate was made by annealing the labeled 71mer oligonucleotide (AJM25) with the complementary 71mer oligonucleotide (AJG52). […] Instead, an increase in KD is seen as more of the N-terminus is truncated (FIG. 2B, 2C). Also, there is an apparent cooperativity when binding to dsDNA, and this cooperativity decreases as the N-terminus is truncated (FIG. 2C). This provides evidence that the N-terminal region of Ref is necessary for DNA binding. Specifically, the amino acids between position 47 and 74 are particularly important.

P1 ΔN76 Ref [7] = molecular target: T5, P1 ΔN76 Ref; experiment: FP; no observable binding; settings: label: 5'-6FAM on AJM25
Procedure: (§4) The truncations were also assayed with a 71mer dsDNA substrate made by annealing the labeled 71mer oligonucleotide (AJM25) with the complementary 71mer oligonucleotide (AJG52). […] As the second motif and part of the third motif were removed in the φW39 ΔN59 and φW39 ΔN66, dsDNA binding was further reduced. As with the ssDNA, φW39 ΔN74 and P1 ΔN76 Ref had no observable dsDNA binding. Overall we provide evidence that the N-terminal region of Ref is necessary for DNA binding, and the putative charge motifs may contribute collectively to that function.
(§5) Ref proteins at 0.5-10,000 nM were incubated with 2 nM AJM25 71mer ssDNA or AJM25 annealed with AJG52 71mer to make a linear 71 bp dsDNA substrate in 25 mM Tris-acetate (pH 8.5), 3 mM potassium glutamate, 15 mM magnesium acetate, and 5% w/v glycerol at room temperature for 15 minutes. Fluorescence anisotropy (FA) was measured at 25° C., using a Tecan Infinite M1000 instrument with 470-nm excitation and 535-nm emission wavelengths for at least three replicates. The average FA values were plotted with one standard deviation of the mean shown as error. Prism software was used to convert FA values to the percent of DNA bound and apparent dissociation constants were determined using one-site, specific binding with Hill coefficient.

φW39 ΔN74 Ref [8] = molecular target: T2, φW39 ΔN74 Ref; experiment: FP; no observable binding; settings: tags: expressed from pET21A with NdeI start Met; label: 5'-6FAM on AJM25
Procedure: as §4, §5

φW39 ΔN21 Ref [9] = molecular target: T4, φW39 ΔN21 Ref; experiment: FP; apparent Kd; 56±3; 15 mM Mg acetate, pH 8.5, 25 C; settings: tags: expressed from pET21A with NdeI start Met; label: 5'-6FAM on AJM25
Procedure: as §1, §3

P1 Ref (wild type) [10] = molecular target: T3, P1 Ref (wild type); experiment: FP; apparent Kd; 14±1; cooperative; 15 mM Mg acetate, pH 8.5, 25 C; settings: label: 5'-6FAM on AJM25
Procedure: as §1, §3

| Binder | Kd (φW39 ΔN47 Ref [1]) | binding result (φW39 ΔN74 Ref [2]) | Kd (P1 Ref (wild type) [3]) | Kd (φW39 ΔN21 Ref [4]) | binding result (P1 ΔN76 Ref [5]) | Kd (φW39 ΔN47 Ref [6]) | binding result (P1 ΔN76 Ref [7]) | binding result (φW39 ΔN74 Ref [8]) | Kd (φW39 ΔN21 Ref [9]) | Kd (P1 Ref (wild type) [10]) |
| --- | --- | --- | --- | --- | --- | --- | --- | --- | --- | --- |
| AJM25 71mer ssDNA (ssDNA) DNA: CAGAAGTAAGTTGGCCGCAGTGTTATCACTCATGGTTATGGCAGCACTGCATAATTCTCTTACTGTCATGC | 113 nM | no binding | 14.4 nM | 119 nM | no binding |  |  |  |  |  |
| AJM25/AJG52 71 bp dsDNA (dsDNA) DNA 1: CAGAAGTAAGTTGGCCGCAGTGTTATCACTCATGGTTATGGCAGCACTGCATAATTCTCTTACTGTCATGC DNA 2: GCATGACAGTAAGAGAATTATGCAGTGCTGCCATAACCATGAGTGATAACACTGCGGCCAACTTACTTCTG |  |  |  |  |  | 142 nM | no binding | no binding | 56.1 nM | 13.5 nM |
